Results from patent US20200397860A1, “SLIT AND BONE GROWTH MODULATION” (Cornell University, priority 2018, published 2020).
“Also recorded” adds a separate entry of the source.

Tests used:
fracture site = assay: Femoral fracture model, local delivery of SLIT3 into the fracture site; assay type: in vivo, mouse
Procedure: Micro-CT (μCT) analysis was conducted on a Scanco Medical μCT 35 system at the Citigroup Biomedical Imaging Core using the previously described parameters. (Shim et al. 2013). μCT analysis was performed by an investigator blinded to the genotypes of the animals under analysis.
For whole-mount immunostaining, retinas were collected from adult mice after systemic or local SLIT3 administration in bone fracture models.
Bone fracture was done following previously described protocols with modifications (Bradaschia-Correa et al. 2017). In brief, after anesthesia and surgical site sterilization, an incision above the right anterolateral femur was made. The femur and patella were then exposed, and a 27-gauge syringe needle was inserted parallel with the long axis of the femur through the patellar groove into the marrow cavity. The needle was then removed, and a single cut was made in the middle of the femoral diaphysis using a dremel saw with a diamond thin cutting wheel (VWR, Cat #100230-724). A blunt 25-gauge needle was then inserted into the marrow space through the hole made in the patella to stabilize the fracture. The needle was then trimmed to avoid it from projecting into the patella-femoral joint space. Muscle was then placed over the osteotomy site and stitched with absorbable sutures prior to closing the skin with wound clips.
Alternatively, the gelatin sponge was manually soaked with SLITS (300 ug/ml in PBS) or vehicle for 1 hour on ice and immediately placed to the surgical fracture area. All animals were euthanized by CO2 at time points indicated.
All bones were tested to failure using four-point bending on a precision electromagnetic-based load frame (EnduraTEC ELF 3200, Bose Corporation, Minnetonka, MC). Femurs were placed with the posterior surface on the lower supports, spaced 9.9 mm apart. The upper supports were spaced 3.3 ram. Load was applied at a rate of 0.1 mm/s until failure occurred. The failure load (N) and bending stiffness […] within the elastic range were calculated from the force-displacement curves and the four-point dimensions.

[1] = system: CD31^hiEMCN^hi endothelium; assay: Flow cytometry of skeletal CD31hiEMCNhi endothelium in femurs after IV injection; assay type: in vivo, mouse; details: 8-week-old B6 mice, twice weekly IV 1 mg/kg, 21 days, femur; 1 mg/kg
Procedure: Femur and tibia were dissected from mutant mice and control groups after removing surrounding connective tissues. The metaphysis region and diaphysis regions of bone was crushed in Hanks Balanced Salt Solution (Life Technologies) containing 10 mM HOPES (pH 7.2) (CellGro) and enzymatically digested with 2.5 mg/mL Collagenase A (Roche) and 1 unit/mL Dispase II (Roche) for 15 minutes at 37° C. under gentle agitation. The resulting cell suspensions were filtered (40 μm), washed using PBS (pH 7.2) containing 0.5% BSA (Fraction V) and 2 mM EDTA. After washing, equal numbers of cells per mouse were blocked with Purified Rat Anti-Mouse CD16/CD32 (BD Biosciences) for 30 min on ice, then stained with APC-conjugated EMCN antibody (ebioscience 50-5851-80), PE-conjugated CD31 (ebioscience 12-0311-81). FITC-conjugated CD45 (Tonbo 35-0451), APC/Cy7-conjugated Ter119 (Biolegend 116223) and PerCP-Cy5.5-conjugated CD146 (BD Biosciences 562231) for 45 min on ice. After washing, cells were resuspended in PBS (pH 7.2) with 2 mM EDTA and 1 μg/mL 4-6,Diamidino-2-Phenylindole (DAPI) (live/dead exclusion) for analysis on an LSRII flow cytometer system (BD Biosciences) cytometer and analyzed using FlowJo software (TreeStar). Cell sorting was performed with a FACS Aria II SORP cell sorter (Becton Dickinson) at Weill Cornell Medical College, with exclusion of DAPI^+ cells and doublets. […]

[2] = system: bone marrow endothelial progenitor outgrowth cells (EPOCs); assay: Endothelial cell wound healing (migration) assay; assay type: cell-based, mouse
Procedure: Mouse bone marrow derived late-stage endothelial progenitor outgrowth cells (EPOCs) were obtained from BioChain (7030031) and cultured in growth medium (BioChain Z7030035) as described previously (Xie et al. 2014). Endothelial cell migration assay was set up in Trans well-24 well plates with 8-um pore filters. Briefly, 1×10^5 cells/well after 1-hour serum starvation were seeded in the upper chamber, then incubated with conditioned medium from osteoblasts and control in the lower chambers for a further 3 h. The cells in the upper surface of each filter were removed with cotton swabs. The cells that migrated into the lower surface were fixed with 4% PFA for 30 min and then stained with crystal violet. The cell numbers were quantified by counting a centered microscope field per each filter (5 wells for each condition). […] The width of the wound area was quantitatively evaluated using ImageJ (see website at rsb.info.uih.gov/ij/download.html). […] At 0, 24, 48 hours after seeding, cells were incubated with 10-fold diluted Alamar Blue solution (Thermo Fisher) and the supernatant was evaluated with a spectrophotometer (Thermo) (5 wells for each condition). […] Alter 5 hours incubation at 37° C., the number of tube branches each well was observed and quantified by counting four random fields per well with microscopy (5 wells for each condition).

[3] = system: bone marrow endothelial progenitor outgrowth cells (EPOCs); assay: Matrigel tube formation assay; assay type: cell-based, mouse; details: for tube formation (tube branch numbers): EPOCs on Matrigel
Procedure: Mouse bone marrow derived late-stage endothelial progenitor outgrowth cells (EPOCs) were obtained from BioChain (7030031) and cultured in growth medium (BioChain Z7030035) as described previously (Xie et al. 2014). Endothelial cell migration assay was set up in Trans well-24 well plates with 8-um pore filters. Briefly, 1×10^5 cells/well after 1-hour serum starvation were seeded in the upper chamber, then incubated with conditioned medium from osteoblasts and control in the lower chambers for a further 3 h. The cells in the upper surface of each filter were removed with cotton swabs. The cells that migrated into the lower surface were fixed with 4% PFA for 30 min and then stained with crystal violet. The cell numbers were quantified by counting a centered microscope field per each filter (5 wells for each condition). Endothelial cell wound healing assays were conducted in 12-well plates precoated with gelatin (Stemcell Technologies). 3×10^5 cells/well were plated overnight and stimulated with a wound in the form of a single linear scratch made with a yellow pipette tip. After gently washing the well twice, cells were cultured in medium with SLIT3 or vehicle. At 6 and 12 hours after injury, cells were stained by 0.5% crystal violet and photographed. The width of the wound area was quantitatively evaluated using ImageJ (see website at rsb.info.uih.gov/ij/download.html). Endothelial cell proliferation assays were conducted in 96-well plates pre-coated with gelatin (Stemcell Technologies). EPOCs (3×10^4 cells/well) were seeded in the medium with a serial dilution of SLIT3 protein or vehicle in plates. At 0, 24, 48 hours after seeding, cells were incubated with 10-fold diluted Alamar Blue solution (Thermo Fisher) and the supernatant was evaluated with a spectrophotometer (Thermo) (5 wells for each condition). Endothelial cell tube formation assay was conducted in 96-well plates pre-coated with Matrigel (BD). After 1 h serum starvation, EPOCs (3×10^4 cells/well) were seeded in conditioned medium dilution or control medium on polymerized Matrigel in plates. Alter 5 hours incubation at 37° C., the number of tube branches each well was observed and quantified by counting four random fields per well with microscopy (5 wells for each condition).

[4] = system: bone marrow-derived endothelial cells; assay: Flow cytometry of CD31hiEMCNhi endothelial cells in EPOC cultures; assay type: cell-based, mouse; details: cultures of EPOCs
Procedure: Femur and tibia were dissected from mutant mice and control groups after removing surrounding connective tissues. The metaphysis region and diaphysis regions of bone was crushed in Hanks Balanced Salt Solution (Life Technologies) containing 10 mM HOPES (pH 7.2) (CellGro) and enzymatically digested with 2.5 mg/mL Collagenase A (Roche) and 1 unit/mL Dispase II (Roche) for 15 minutes at 37° C. under gentle agitation. The resulting cell suspensions were filtered (40 μm), washed using PBS (pH 7.2) containing 0.5% BSA (Fraction V) and 2 mM EDTA. […] After washing, cells were resuspended in PBS (pH 7.2) with 2 mM EDTA and 1 μg/mL 4-6,Diamidino-2-Phenylindole (DAPI) (live/dead exclusion) for analysis on an LSRII flow cytometer system (BD Biosciences) cytometer and analyzed using FlowJo software (TreeStar). […]
Mouse bone marrow derived late-stage endothelial progenitor outgrowth cells (EPOCs) were obtained from BioChain (7030031) and cultured in growth medium (BioChain Z7030035) as described previously (Xie et al. 2014). […] The cell numbers were quantified by counting a centered microscope field per each filter (5 wells for each condition). […] The width of the wound area was quantitatively evaluated using ImageJ (see website at rsb.info.uih.gov/ij/download.html). […]

B1: SLIT3: SLIT3 recombinant protein (R&D); secreted ligand of ROBO receptors (protein, UniProt O75094 34-1523, looked up)
Slit homolog 3 protein: CPTKCTCSAASVDCHGLGLRAVPRGIPRNAERLDLDRNNITRITKMDFAGLKNLRVLHLEDNQVSVIERGAFQDLKQLERLRLNKNKLQVLPELLFQSTPKLTRLDLSENQIQGIPRKAFRGITDVKNLQLDNNHISCIEDGAFRALRDLEILTLNNNNISRILVTSFNHMPKIRTLRLHSNHLYCDCHLAWLSDWLRQRRTVGQFTLCMAPVHLRGFNVADVQKKEYVCPAPHSEPPSCNANSISCPSPCTCSNNIVDCRGKGLMEIPANLPEGIVEIRLEQNSIKAIPAGAFTQYKKLKRIDISKNQISDIAPDAFQGLKSLTSLVLYGNKITEIVKGLFDGLVSLQLLLLNANKINCLRVNTFQDLQNLNLLSLYDNKLQTISKGLFAPLQSIQTLHLAQNPFVCDCHLKWLADYLQDNPIETSGARCSSPRRLANKRISQIKSKKFRCSGSEDYRSRFSSECFMDLVCPEKCRCEGTIVDCSNQKLVRIPSHLPEYVTDLRLNDNEVSVLEATGIFKKLPNLRKINLSNNKIKEVREGAFDGAASVQELMLTGNQLETVHGRVFRGLSGLKTLMLRSNLIGCVSNDTFAGLSSVRLLSLYDNRITTITPGAFTTLVSLSTINLLSNPFNCNCHLAWLGKWLRKRRIVSGNPRCQKPFFLKEIPIQDVAIQDFTCDGNEESSCQLSPRCPEQCTCMETVVRCSNKGLRALPRGMPKDVTELYLEGNHLTAVPRELSALRHLTLIDLSNNSISMLTNYTFSNMSHLSTLILSYNRLRCIPVHAFNGLRSLRVLTLHGNDISSVPEGSFNDLTSLSHLALGTNPLHCDCSLRWLSEWVKAGYKEPGIARCSSPEPMADRLLLTTPTHRFQCKGPVDINIVAKCNACLSSPCKNNGTCTQDPVELYRCACPYSYKGKDCTVPINTCIQNPCQHGGTCHLSDSHKDGFSCSCPLGFEGQRCEINPDDCEDNDCENNATCVDGINNYVCICPPNYTGELCDEVIDHCVPELNLCQHEAKCIPLDKGFSCECVPGYSGKLCETDNDDCVAHKCRHGAQCVDTINGYTCTCPQGFSGPFCEHPPPMVLLQTSPCDQYECQNGAQCIVVQQEPTCRCPPGFAGPRCEKLITVNFVGKDSYVELASAKVRPQANISLQVATDKDNGILLYKGDNDPLALELYQGHVRLVYDSLSSPPTTVYSVETVNDGQFHSVELVTLNQTLNLVVDKGTPKSLGKLQKQPAVGINSPLYLGGIPTSTGLSALRQGTDRPLGGFHGCIHEVRINNELQDFKALPPQSLGVSPGCKSCTVCKHGLCRSVEKDSVVCECRPGWTGPLCDQEARDPCLGHRCHHGKCVATGTSYMCKCAEGYGGDLCDNKNDSANACSAFKCHHGQCHISDQGEPYCLCQPGFSGEHCQQENPCLGQVVREVIRRQKGYASCATASKVPIMECRGGCGPQCCQPTRSKRRKYVFQCTDGSSFVEEVERHLECGCLACS
B1 was tested, and the “fracture healing, local delivery” value (fracture site; implanted at fracture site) was “enhances bone-fracture healing”, the “non-skeletal vascular abundance or morphology” value (fracture site; local delivery) was “did not impact” and the brain ultrastructure (fracture site; mouse, in vivo) was “did not impact”. For the same molecule, the “levels of skeletal CD31hiEMCNhi endothelium in vivo” value [1] was “increased levels; also recorded: induces production”, the migration [2] was “enhanced migration” and the “tube formation (tube branch numbers)” value [3] was “enhanced”. The “tube formation (tube branch numbers)” value ([3]; listed as Slit3) was “increases with increased Slit3”, the “tube formation capacity in response to ligand after Robo1 knockdown” value ([3]; EPOCs transduced with Robo1 shRNA) was “impaired their response” and the “ability to induce tube formation after shRNA-mediated knockdown of YAP” value ([3]; EPOCs transduced with YAP shRNA) was “significantly reduced the ability”. The “acquisition of CD31hiEMCNhi surface immunophenotype in culture” value [4] was “enhanced the acquisition; also recorded: induces production”.
